This is an account of results in a protein production outcome set (Wang et al. 2014).

A short description of this data set: label from the status in PepcDB records.
For the sequence “GSLQDNSSYPDEPWRITEEQREYYVNQFRSLQPDPSSFISGSVAKNFFTKSKLSIPELSYIWELSDADCDGALTLPEFCAAFHLIVARKNGYPLPEGLPPTLQPEFIVTD”, the protein production result is listed as “not failed”.
Take “GSQPKLTEAVSLMEANIEEPLSTDDIAYYVGVSRRQLERLFKQYLGTVPSKYYLELRLNRARQLLQQTSKSIVQIGLACGFSSGPHFSSTYRNHFNITPREERAQRAQPGAL”: the protein production entry is “not failed”.
Then “GSSGSSGGYFDAHALAMDYRSLGFRECLAEVARYLSIIEGLDASDPLRVRLVSHLNNYASQREASGPSSG”, with “not failed”; and “GSSGSSGMPMTLGYWDIRGLAHAIRLFLEYTDSSYEEKRYTMGDAPDYDQSQWLNEKFKLGLDFPNLPYLIDGSHKITQSNAILRYLGRKHNLCGETEEERIRVDILENQLMDNRMVLARLCYNADFEKLKPGYLEQLPGMMRLYSEFLGKRPWFAGDKITFVDFIAYDVLERNQVFEAKCLDAFPNLKDFIARFEGLKKISDYMKTSRFLPRPMFTKMATWGSNSGPSSG”, with “not failed”.
As for “GSSGSSGMTPLVKDIIMSSTRMPALFLGHGSPMNVLEDNLYTRSWQKLGMTLPRPQAIVVVSAHWFTRGTGVTAMETPPTIHDFGGFPQALYDTHYPAPGSPALAQRLVELLAPIPVTLDKEAWGFDHGSWGVLIKMYPDADIPMVQLSIDSSKPAAWHFEMGRKLAALRDEGIMLVASGNVVHNLRTVKWHGDSSPYPWATSFNEYVKANLTWQGPVEQHPLVNYLDHEGGTLSNPTPEHYLPLLYVLGAWDGQEPITIPVEGIEMGSLSMLSVQIG”, the protein production entry is given as “not failed”.
Take “GTTVPAPIMQTTDNSLTWLLQNLLDRTPGTRHALVLSRDGLRLCWTEHLTLDRADQLAAICSGIQALAQGASVEFGNGTGGVRHSMTEFHGGLLFIVEAGEGAHLAVVAVEDADPGVVGHQMTELVEQIGEHLRAEPRH”: the protein production entry is reported as “failed”.
To “GVAVEVRGLPPAVPDELLTLYFENRRRSGGGPVLSWQRLGCGGVLTFREPADAERVLAQADHELHGAQLSLRPAPPRAPARLLLQGLPPGT” belongs “not failed”; to “GVKYTIAVLGPQGSFSEEMALKLVGSRVPLRYCSTTDEIIKLVESGEVDYGLVPIENSVNGTVLPVIDALLNHDVEVFGEAKLEVNHCLVAKRKIELKEIKTIYSHPQAVAQCMGFINNYLPSVAIRYTTSTSDAARMLDDYSAAIMSENAARFYRLHVLRKGIQDLKGRNITRFYLIRRRSG”, “failed”; to “GVQKVDKARKQITVAGGTRINEVGKTLKQHGLSLINQGDIDSQAVAGAFTTGTHGTGIKLGNMASSIAGMRIVKANGEILDIDGSDEELLHAAQVSVGTLGIISSMTLNVMDA”, “failed”.
To “GVTYLLAKRKILYFEAVESKIFVYTEKDVYETTWKLYELEEKFKDSSFFRCSKSMILNIEWIEKIAPGFHGKFEASLFNREKVIISRQYAKILKQKLNLGGKGK” belongs “failed”.
Then “GWKVEYMAIADPQTIDQTPIVIVGGAFQNFNSYKYCVEQLFHCGPVILIDLPSMGANQQITNRDSGVSAAVLELPDLAKILVEWLDIIKIQKISMMGMSLGSVVASCFADLRPDMIDRLVLMGVMQKTRKSWRMILEESLKLMQENRMEEFGQAVILYLVNHAKLDQTRMSPTAKRLFFRQMAEFNPTERLRYEINCQRLLRLKDVPIPQCKTLVAAGQYDSFTLPFENANFALQCPDVEFALIANADHVPQLQRRKETMRLFETFLNH”, with “failed”; and “HALQAGRLGSTVFVANLDYKVGWKKLKEVFSMAGVVVRADILEDKDGKSRGIGTVTFEQSIEAVQAISMFNGQLLFDRPMHVKMDERALPKGDFFPPERPQQ”, with “failed”.
For the sequence “HCSADLVLVEPTPLAVLDRIALVTDNGPFDPRKVELANGLAAAAGASLVLGHAVPADATEDQRATVRTYHEDLMGLCTVPVESNIVGTTTPAAMARAVSAADLVVVESDAAWWARLLDNREPQRIAGAFGGPAIVVRPQQAEGPSPVRRLLERVAF”, the protein production entry is “failed”.
Then “HEHPTSAGGDGGAGTGAVGTHDGSAAAAAAAAALPSISGARGHAGPEGGHDNDMGGMDASGGGGGGGYGRLPGLAAQSSMASVDGDEASLPPIANLSLGKANMTGSTVGGAAHASTRRSTLNTYYEPGAGGGGGTGGAGGGGGGAGPGPAGYGKVAKAAAVGGAGSVAGGGGVVGGAGVGGGGAVGSGTVGRRQSVGVVVGKYGSVNKQASQGHGGGGPGVAGAAGMAVTGGHAGGGVGGGGGGAVGVGGVGVNKYKANVGKTNSKYISPYSLRQLAG”, with “failed”.
